# Test results from patent US20220411504A1 (Janssen / Centocor, published 2022).
# Columns and labels:
# recombinant HLA-G [1] = molecular target: recombinant HLA-G (human); assay: ELISA, scFv in E. coli supernatant on recombinant HLA-G
# recombinant HLA-G [2] = molecular target: recombinant HLA-G (human); assay: ELISA after 10 min heat treatment of the scFv supernatant
# [3] = molecular target: T1, HLA-G on cells (K562-HLA-G and HLA-G expressing tumor cells) (human); assay: cell-based or functional assay
# [4] = molecular target: T2, Human CD3 epsilon (CD3ε) of the T cell receptor complex on cells (human, UniProt P07766 23-207); assay: T cell binding (method not described)
# T2 construct: On Jurkat cells and primary human (pan) T cells; also called T-cell surface glycoprotein CD3 epsilon chain; T3E
# T2 sequence (P07766 23-207 limits assumed, one chain of several): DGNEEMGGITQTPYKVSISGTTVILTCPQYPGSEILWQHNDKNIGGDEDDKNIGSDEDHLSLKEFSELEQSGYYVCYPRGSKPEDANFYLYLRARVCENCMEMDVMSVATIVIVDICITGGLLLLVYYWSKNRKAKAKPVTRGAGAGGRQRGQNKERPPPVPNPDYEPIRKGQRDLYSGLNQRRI
# [5] = molecular target: T1, HLA-G on cells (K562-HLA-G and HLA-G …); assay: K562-HLA-G cell binding (method not described)
Room temperature binding signal (recombinant HLA-G [1]),% Binding retained 55° C. (recombinant HLA-G [2]) [%],% Binding retained 60° C. (recombinant HLA-G [2]) [%],% Binding retained 65° C. (recombinant HLA-G [2]) [%],EC50 [4] [nM],EC50 [5] [nM],Binder,"Cytotoxicity, EC50 (T cell-mediated, NCI-H2009-b2m target cells, 72 hr) [3] [nM]"
5.76e+06,14,2,1,,,"MHGB738 v-region as scFv (E. coli supernatant) (scFv, V domains shown, One scFv chain; also called MHGB738 (GL optimized B688)) VH: QVQLQQSGPGLVKPSQTLSLTCAISGDSVSSNRAAWNWIRQSPSRGLEWLGRTYYRSKWYNDYAVSVKSRITINPDTSKNQISLQLNSVTPEDTAVYYCARVRPGIPFDYWGQGTPVTVSS VL: not shown",
2.75e+06,84,80,48,,,"MHGB737 v-region as scFv (E. coli supernatant) (scFv, V domains shown, One scFv chain; also called MHGB737 (GL optimized B694)) VH: EVQLLESGGGLVQPGGSLRLSCAASGFTFSSYAMHWVRQAPGKGLEWVSGISGSGFSTYYVDSVKGRFTISRDNSKNTLYLQMNSLRAEDTAVYYCAKDNLVAGTVFDYWGQGTLVTVSS VL: not shown",
1.52e+07,103,122,11,,,"MHGB665 v-region as scFv (E. coli supernatant) (scFv, V domains shown, One scFv chain) VH: QVQLQQSGPGLVKPSQTLSLTCAISGDSVSSNSAAWNWIRQSPSRGLEWLGRTYYRSKWYNDYAVSVKSRITINPDTSKNQISLQLNSVTPEDTAVYYCAGDRRYGIVGLPFAYWGQGTLVTVSS VL: not shown",

# Further lines, the binder ahead of its results:
Binder,Room temperature binding signal (recombinant HLA-G [1]),% Binding retained 55° C. (recombinant HLA-G [2]) [%],% Binding retained 60° C. (recombinant HLA-G [2]) [%],% Binding retained 65° C. (recombinant HLA-G [2]) [%],EC50 [4] [nM],EC50 [5] [nM],"Cytotoxicity, EC50 (T cell-mediated, NCI-H2009-b2m target cells, 72 hr) [3] [nM]"
"HC3B125 (bispecific antibody, human IgG1, lambda, L234A L235A, No codon for C-terminal K447; also called CD3B376-Fab-Fc x MHGB732-LH-scFv-Fc; HCB125) heavy: QVQLQQSGPRLVRPSQTLSLTCAISGDSVFNNNAAWSWIRQSPSRGLEWLGRTYYRSKWLYDYAVSVKSRITVNPDTSRNQFTLQLNSVTPEDTALYYCARGYSSSFDYWGQGTLVTVSSASTKGPSVFPLAPSSKSTSGGTAALGCLVKDYFPEPVTVSWNSGALTSGVHTFPAVLQSSGLYSLSSVVTVPSSSLGTQTYICNVNHKPSNTKVDKKVEPKSCDKTHTCPPCPAPEAAGGPSVFLFPPKPKDTLMISRTPEVTCVVVSVSHEDPEVKFNWYVDGVEVHNAKTKPREEQYNSTYRVVSVLTVLHQDWLNGKEYKCKVSNKALPAPIEKTISKAKGQPREPQVYVYPPSREEMTKNQVSLTCLVKGFYPSDIAVEWESNGQPENNYKTTPPVLDSDGSFALVSKLTVDKSRWQQGNVFSCSVMHEALHNHYTQKSLSLSPG light: QSALTQPASVSGSPGQSITISCTGTSSNIGTYKFVSWYQQHPDKAPKVLLYEVSKRPSGVSSRFSGSKSGNTASLTISGLQAEDQADYHCVSYAGSGTLLFGGGTKLTVLGQPKAAPSVTLFPPSSEELQANKATLVCLISDFYPGAVTVAWKADSSPVKAGVETTTPSKQSNNKYAASSYLSLTPEQWKSHRSYSCQVTHEGSTVEKTVAPTECS scFv: DIVMTQSPDSLAVSLGERATINCKSSQSVLHSSNNKNYLTWFQQKPGQPPKLLIYWASTRESGVPDRFSGSGSGTDFTLTISSLQAEDVAVYYCHQYYSTPPTFGQGTKVEIKGGSEGKSSGSGSESKSTGGSQVQLQQSGPGLVKPSQTLSLTCAISGDSVSSNSAAWNWIRQSPSRGLEWLGRTYYRSKWYNDYAVSVKSRITINPDTSKNQISLQLNSVTPEDTAVYYCAGDRRYGIVGLPFAYWGQGTLVTVSSEPKSSDKTHTCPPCPAPEAAGGPSVFLFPPKPKDTLMISRTPEVTCVVVSVSHEDPEVKFNWYVDGVEVHNAKTKPREEQYNSTYRVVSVLTVLHQDWLNGKEYKCKVSNKALPAPIEKTISKAKGQPREPQVYVLPPSREEMTKNQVSLLCLVKGFYPSDIAVEWESNGQPENNYLTWPPVLDSDGSFFLYSKLTVDKSRWQQGNVFSCSVMHEALHNHYTQKSLSLSPG",,,,,60,12,0.0565
"HC3B258 (bispecific antibody, human IgG1, lambda, L234A L235A, Differs from HC3B125 only by a codon for the C-terminal lysine K447, which is processed; also called CD3B376-Fab-Fc x MHGB732-LH-scFv-Fc (with K447 codon)) heavy: QVQLQQSGPRLVRPSQTLSLTCAISGDSVFNNNAAWSWIRQSPSRGLEWLGRTYYRSKWLYDYAVSVKSRITVNPDTSRNQFTLQLNSVTPEDTALYYCARGYSSSFDYWGQGTLVTVSSASTKGPSVFPLAPSSKSTSGGTAALGCLVKDYFPEPVTVSWNSGALTSGVHTFPAVLQSSGLYSLSSVVTVPSSSLGTQTYICNVNHKPSNTKVDKKVEPKSCDKTHTCPPCPAPEAAGGPSVFLFPPKPKDTLMISRTPEVTCVVVSVSHEDPEVKFNWYVDGVEVHNAKTKPREEQYNSTYRVVSVLTVLHQDWLNGKEYKCKVSNKALPAPIEKTISKAKGQPREPQVYVYPPSREEMTKNQVSLTCLVKGFYPSDIAVEWESNGQPENNYKTTPPVLDSDGSFALVSKLTVDKSRWQQGNVFSCSVMHEALHNHYTQKSLSLSPG light: QSALTQPASVSGSPGQSITISCTGTSSNIGTYKFVSWYQQHPDKAPKVLLYEVSKRPSGVSSRFSGSKSGNTASLTISGLQAEDQADYHCVSYAGSGTLLFGGGTKLTVLGQPKAAPSVTLFPPSSEELQANKATLVCLISDFYPGAVTVAWKADSSPVKAGVETTTPSKQSNNKYAASSYLSLTPEQWKSHRSYSCQVTHEGSTVEKTVAPTECS scFv: DIVMTQSPDSLAVSLGERATINCKSSQSVLHSSNNKNYLTWFQQKPGQPPKLLIYWASTRESGVPDRFSGSGSGTDFTLTISSLQAEDVAVYYCHQYYSTPPTFGQGTKVEIKGGSEGKSSGSGSESKSTGGSQVQLQQSGPGLVKPSQTLSLTCAISGDSVSSNSAAWNWIRQSPSRGLEWLGRTYYRSKWYNDYAVSVKSRITINPDTSKNQISLQLNSVTPEDTAVYYCAGDRRYGIVGLPFAYWGQGTLVTVSSEPKSSDKTHTCPPCPAPEAAGGPSVFLFPPKPKDTLMISRTPEVTCVVVSVSHEDPEVKFNWYVDGVEVHNAKTKPREEQYNSTYRVVSVLTVLHQDWLNGKEYKCKVSNKALPAPIEKTISKAKGQPREPQVYVLPPSREEMTKNQVSLLCLVKGFYPSDIAVEWESNGQPENNYLTWPPVLDSDGSFFLYSKLTVDKSRWQQGNVFSCSVMHEALHNHYTQKSLSLSPG",,,,,60,11,
"MHGB694 v-region as scFv (E. coli supernatant) (scFv, V domains shown, One scFv chain) VH: EVQLLESGGGLVQPGGSLRLSCAASGFTFSSYAMHWVRQAPGKGLDWVSGISGSGFSTYYVDSVKGRFTISRDNSKHTLYLQMNSLRAEDTAVYYCAKDNLVAGTVFDYWGQGTLVTVSS VL: not shown",3.07e+06,85,9,4,,,
